# According to US7196244:
# Assays:
# [1] = test system: TC3A transposase (Caenorhabditis elegans); test: cell_activity; settings: ced-9 promoter; 0.1% with glh-2 promoter
# [2] = target: T1, Mos1 transposase (Drosophila mauritiana) (UniProt Q7JQ07); test: cell_activity; settings: glh-2 promoter, C. elegans germline
# T1 sequence: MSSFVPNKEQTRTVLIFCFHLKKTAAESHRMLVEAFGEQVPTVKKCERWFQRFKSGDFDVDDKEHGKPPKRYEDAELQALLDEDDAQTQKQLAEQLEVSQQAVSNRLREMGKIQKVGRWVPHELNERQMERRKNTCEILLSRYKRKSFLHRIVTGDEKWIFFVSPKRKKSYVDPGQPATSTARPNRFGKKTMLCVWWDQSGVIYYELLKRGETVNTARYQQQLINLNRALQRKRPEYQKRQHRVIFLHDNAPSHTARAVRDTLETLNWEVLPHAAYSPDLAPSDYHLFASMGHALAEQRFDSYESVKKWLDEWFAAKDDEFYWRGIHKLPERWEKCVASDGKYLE
Substance,activity (% germline reversion) [1],activity (% chromosomes with catastrophic excision) [2]
Tc3 element in unc-22(r750::Tc3),2,
Mos1 transposon in integrated array oxIs25,,20.9
